Data on 2 substances can be found in paper PMC10530332.

In assay [1] the target is natural nurse shark UrIg (nurse shark (Ginglymostoma cirratum) (endogenous in nurse shark tissues)). The experiment in a line: non-reducing SDS-PAGE with western blot. (In general: Immunoblotting shows a protein as a band on a membrane.)
For assay [2], the target named is recombinant UrIg, 4-domain molecule (V-C1-C2-C3) with C-terminal His tag (nurse shark (Ginglymostoma cirratum)). The assay can be described thus: SEC. In general terms: Size exclusion chromatography separates by hydrodynamic size, large species first.
The target is the same in assay [3]. The assay can be described thus: SDS-PAGE, non-reducing against reducing.

As for “natural nurse shark UrIg (natural protein)”, the stoichiometry N (commonly a count of units in the complex or per binding partner) in assay [1] was determined as 2. On to “recombinant UrIg, 4-domain molecule (V-C1-C2-C3) with C-terminal His tag (natural protein)”, for which the stoichiometry N in assay [2] and in assay [3] was 2 each time.
